Assay results published in patent publication US20210253679A1 (NATIONAL RESEARCH COUNCIL OF CANADA, published 2021).

Key:
[1] = molecular target: T1, human serum albumin (human, UniProt P02768 25-609); assay: SPR, single cycle kinetics, pH 5.5
T1 construct: also called HSA

[2] = molecular target: T2, rhesus serum albumin (rhesus, UniProt Q28522 17-600); assay: SPR, single cycle kinetics, pH 5.5
T2 construct: also called RhSA

[3] = molecular target: T1, human serum albumin; assay: SPR, single cycle kinetics, pH 7.4
[4] = molecular target: T2, rhesus serum albumin; assay: SPR, single cycle kinetics, pH 7.4
[5] = molecular target: T1, human serum albumin; assay: SPR, single cycle kinetics, pH 5.5; remark: listed apart in the source
[6] = molecular target: T2, rhesus serum albumin; assay: SPR, single cycle kinetics, pH 5.5; remark: listed apart in the source
[7] = molecular target: T1, human serum albumin; assay: SPR, single cycle kinetics, pH 7.4; remark: listed apart in the source
[8] = molecular target: T2, rhesus serum albumin; assay: SPR, single cycle kinetics, pH 7.4; remark: listed apart in the source
[9] = molecular target: T3, rat serum albumin (rat, UniProt P02770 25-608); assay: SPR, single cycle kinetics, pH 7.4
T3 construct: also called RSA

[10] = molecular target: T3, rat serum albumin; assay: SPR, single cycle kinetics, pH 5.5
[11] = molecular target: T1, human serum albumin; assay: SPR, single-concentration injection over an HSA surface

B1: H18 sdAb (VHH)
VHH: QVQLVESGGGLVQAGGSLRLSCTASGSIESINRMAWYRQAPGQQREFVARISKGGSTNYPDSVKGRFTISRDNAKNTVYLQMNSLKPEDTAVYYCAAGPVWEQFWGQGTQVTVSS
notes: also called H18 VHH
- Kd [1]: 0.046 µM
- Kd [2]: 0.042 µM
- Kd [3]: 0.034 µM
- Kd [4]: 0.048 µM
- Kd [5]: 0.0462 µM
- Kd [6]: 0.0422 µM
- Kd [7]: 0.0339 µM
- Kd [8]: 0.0476 µM
- binding result [9]: no binding

B2: R28-H3 (VHH)
VHH: QVQLVESGGGLVQPGGSLRLSCAASGRTFIAYAMGWFRQAPGKEREFVAAITNFAGGTTYYADSVKGRFTISRDNSKNTLYLQMNSLRAEDTAVYYCAADRSAQTMRQVRPVLPYWGQGTLVTVSS
- Kd [5]: 0.0472 µM
- Kd [6]: 1.27 µM
- Kd [10]: 0.0018 µM
- Kd [7]: 0.0513 µM
- Kd [8]: 0.625 µM
- Kd [9]: 0.0024 µM

B3: R28-H1 (VHH)
VHH: EVQLVESGGGLVQPGGSLRLSCAASGRTFIAYAMGWFRQAPGKGLEFVSAITNFAGGTTYYADSVKGRFTISRDNSKNTLYLQMNSLRAEDTAVYYCAADRSAQTMRQVRPVLPYWGQGTLVTVSS
- Kd [5]: 0.0152 µM
- Kd [6]: 0.0287 µM
- Kd [10]: 0.0065 µM
- Kd [7]: 0.162 µM
- Kd [8]: 2.71 µM
- Kd [9]: 0.0053 µM

B4: R28-H4 (VHH)
VHH: QVQLVESGGGLVQPGGSLRLSCAASGRTFIAYAMGWFRQAPGKEREFVAAITNFAGGTTYYADSVKGRFTISRDNAKTTLYLQMNSLRAEDTAVYYCAADRSAQTMRQVRPVLPYWGQGTLVTVSS
- Kd [5]: 0.0516 µM
- Kd [6]: 0.341 µM
- Kd [10]: 0.0053 µM
- Kd [7]: 0.0115 µM
- Kd [8]: 1.74 µM
- Kd [9]: 0.0011 µM

B5: R28-H5 (VHH)
VHH: QVQLVESGGGLVQPGGSLRLSCAASGRTFIAYAMGWFRQAPGKEREFVAAITNFAGGTTYYADSVKGRFTISRDNAKTTVYLQMNSLRAEDTAVYYCAADRSAQTMRQVRPVLPYWGQGTLVTVSS
- Kd [5]: 0.002 µM
- Kd [6]: 0.0073 µM
- Kd [10]: 0.0035 µM
- Kd [7]: 0.0111 µM
- Kd [8]: 0.145 µM
- Kd [9]: 0.0004 µM

B6: B39-R11 (bispecific antibody, not shown: small tags and cut ends)
chain: QVQLVESGGGLVQAGGSLRLSCAASGLTFSRYVMGWFRQAPGKEREFVAAITWGGTPNYADSVKGRFTISRDNSKNTQYLQMNSLKPEDTAVYYCAAGLGWDSRYSQSYNYWGQGTQVTVSSGGGGSGGGGSGGGGSGGGGSGGGGSQVKLEESGGGLVQAGGSLRLSCVGPGFLLRSNTMGWYRQAPGKERELVAFIRPSGLTNYNDAVQGRFTISRDNAKNTVYLQMNALKPEDTAVYYCHTRPPFQRDSWGQGTQVTVSS
- binding result [11]: binds

B7: B39-M75 (bispecific antibody, not shown: small tags and cut ends)
chain: QVQLVESGGGLVQAGGSLRLSCAASGLTFSRYVMGWFRQAPGKEREFVAAITWGGTPNYADSVKGRFTISRDNSKNTQYLQMNSLKPEDTAVYYCAAGLGWDSRYSQSYNYWGQGTQVTVSSGGGGSGGGGSGGGGSGGGGSGGGGSQVQLVESGGGFVQAGGSLRLSCAASGRTFDNYVMAWFRQAPGKEREFVASISGSGSITNYANSVKDRFTISRDSAKNAIYLQMNSLKPEDTALYYCAAGSRRTYYREPKFYPSWGQGTQVTVSS
- binding result [11]: binds

B8: Rh46 sdAb (VHH)
VHH: QVKLEESGGGLVQAGGSLRLSCTASTRTFSSYIMGWFRQAPGKERELVAAISWSGRMTHYADSVKGRFAISRDNAKNTVYLQMNVLKPEDTAIYSCAADRTTAWGAPRSQYDSWGQGTQVTVSS
notes: also called Rh46 VHH
- Kd [1]: 0.041 µM
- Kd [2]: 0.03 µM
- Kd [3]: 0.08 µM
- Kd [4]: 0.081 µM
- Kd [5]: 0.0413 µM
- Kd [6]: 0.0296 µM
- Kd [7]: 0.0801 µM
- Kd [8]: 0.0808 µM
- binding result [9]: no binding

B9: B39 (VHH, not shown: small tags and cut ends)
VHH: QVQLVESGGGLVQAGGSLRLSCAASGLTFSRYVMGWFRQAPGKEREFVAAITWGGTPNYADSVKGRFTISRDNSKNTQYLQMNSLKPEDTAVYYCAAGLGWDSRYSQSYNYWGQGTQVTVSS
notes: also called B39-HA-His6; B39 control
- binding result [11]: no binding (tested: not printed (single concentration))

B10: B39-M79 (bispecific antibody, not shown: small tags and cut ends)
chain: QVQLVESGGGLVQAGGSLRLSCAASGLTFSRYVMGWFRQAPGKEREFVAAITWGGTPNYADSVKGRFTISRDNSKNTQYLQMNSLKPEDTAVYYCAAGLGWDSRYSQSYNYWGQGTQVTVSSGGGGSGGGGSGGGGSGGGGSGGGGSQVKLEESGGGLVQAGGSLKLSCAASGSTFSSSSVGWYRQAPGQQRELVAAITSGGSTNTADSVKGRFTMSRDNAKNTVYLQMRDLKPEDTAVYYCNVAGRNWVPISRYSPGPYWGQGTQVTVSS
- binding result [11]: binds

B11: Rh34 sdAb (VHH)
VHH: QVKLEESGGGLVQAGGSLRLSCAASGRTISLYAVGWFRRAPGKEREFVAAISWTDSSTYYADSVKGRFTISRDNAKNTVYLGMNSLNPEDTAVYYCAADVSIRGLQKYEYDYWGQGTQVTVSS
notes: also called Rh34 VHH
- Kd [1]: 0.129 µM
- Kd [2]: 0.167 µM
- Kd [3]: 0.286 µM
- Kd [4]: 0.333 µM
- Kd [5]: 0.129 µM
- Kd [6]: 0.167 µM
- Kd [7]: 0.286 µM
- Kd [8]: 0.333 µM
- binding result [9]: no binding

B12: M79-H4 (VHH)
VHH: QVQLVESGGGLVQPGGSLRLSCAASGSTFSSSSVGWYRQAPGQQRELVAAITSGGSTNTADSVKGRFTISRDNSKNTLYLQMNSLRAEDTAVYYCNVAGRNWVPISRYSPGPYWGQGTLVTVSS
- Kd [5]: 0.0084 µM
- Kd [6]: 0.0029 µM
- Kd [10]: 0.0088 µM
- Kd [7]: 0.0589 µM
- Kd [8]: 0.0387 µM
- Kd [9]: 0.01 µM

B13: M79-H5 (VHH)
VHH: QVQLVESGGGLVQPGGSLRLSCAASGSTFSSSSVGWYRQAPGQQRELVAAITSGGSTNTADSVKGRFTISRDNAKNTVYLQMNSLRAEDTAVYYCNVAGRNWVPISRYSPGPYWGQGTLVTVSS
- Kd [5]: 0.0081 µM
- Kd [6]: 0.0042 µM
- Kd [10]: 0.0066 µM
- Kd [7]: 0.103 µM
- Kd [8]: 0.0865 µM
- Kd [9]: 0.0202 µM

B14: M79-H2 (VHH)
VHH: EVQLVESGGGLVQPGGSLRLSCAASGSTFSSSSVGWYRQAPGKGLELVSAITSGGSTNTADSVKGRFTISRDNSKNTLYLQMNSLRAEDTAVYYCNVAGRNWVPISRYSPGPYWGQGTLVTVSS
- Kd [5]: 0.0065 µM
- Kd [6]: 0.0026 µM
- Kd [10]: 0.0059 µM
- Kd [7]: 0.0762 µM
- Kd [8]: 0.0621 µM
- Kd [9]: 0.0104 µM

B15: M79-H3 (VHH)
VHH: EVQLVESGGGLVQPGGSLRLSCAASGSTFSSSSVGWYRQAPGKQRELVSAITSGGSTNTADSVKGRFTISRDNSKNTLYLQMNSLRAEDTAVYYCNVAGRNWVPISRYSPGPYWGQGTLVTVSS
- Kd [5]: 0.0096 µM
- Kd [6]: 0.0029 µM
- Kd [10]: 0.0122 µM
- Kd [7]: 0.0533 µM
- Kd [8]: 0.0367 µM
- Kd [9]: 0.0087 µM

B16: B39-R28 (bispecific antibody, not shown: small tags and cut ends)
chain: QVQLVESGGGLVQAGGSLRLSCAASGLTFSRYVMGWFRQAPGKEREFVAAITWGGTPNYADSVKGRFTISRDNSKNTQYLQMNSLKPEDTAVYYCAAGLGWDSRYSQSYNYWGQGTQVTVSSGGGGSGGGGSGGGGSGGGGSGGGGSQVQLVESGGGLVQAGGSLRLSCVASGRTFIAYAMGWFRQAPGKEREFVAAITNFAGGTTYYADSVKGRFTISRDNAKTTVYLQMNSLKPEDTALYYCAADRSAQTMRQVRPVLPYWGQGTQVTVSS
- binding result [11]: binds
